Kd data for two molecules are collected here from patent US20130171152A1 (published 2013).

For assay [1], the target named is Homo sapiens MUC16 (GenBank NP-078966).
Assay [2] has the same target. This is another data set of the same source.

Substitutions are numbered along the chain they refer to. Like-named read-outs stand apart in the source and are kept apart here.

B1: 4A5.37 (antibody, V domains shown)
VH: VKLEESGGGFVKPGGSLKISCAASGFTFRNYAMSWVRLSPEMRLEWVATISSAGGYIFYSDSVQGRFTISRDNAKNTLHLQMGSLRSGDTAMYYCARQGFGNYGDYYAMDYWGQGTTVTVSS
VL: DIELTQSPSSLAVSAGEKVTMSCKSSQSLLNSRTRKNQLAWYQQKTGQSPELLIYWASTRQSGVPDRFTGSGSGTDFTLTISSVQAEDLAVYYCQQSYNLLTFGPGTKLEIKR
The molecule B1 came in with a Kd in assay [1] of 7.3 nM.

B2: 4H11.2.5 (antibody, V domains shown)
VH: B1 VH with E4Q, I19V, R29S, N30S
VL: B1 VL with T46P, I111V
On to B2, for which the Kd in assay [2] came out at 6.8 nM.
